# Assay results taken from article PMC9964314.
# Key:
# [1] = molecular target: FITC tagged AAV Po1 capsid bipartite NLS peptide (residues 119-158) (porcine adeno-associated virus, strain Po1); experiment: fluorescence polarisation
# [2] = molecular target: FITC tagged AAV Po1 capsid monopartite NLS peptide (residues 143-165) (porcine adeno-associated virus, strain Po1); experiment: fluorescence polarisation
Substance,Kd [1] [nM],Kd [2] [nM]
Human importin α5 lacking the IBB domain (hImp5DIBB) (domain or fragment),0.14,144
Human importin α7 lacking the IBB domain (hImpα7DIBB) (domain or fragment),0.29,294
Human importin α1 lacking the IBB domain (hImpα1DIBB) (domain or fragment),0.382,556
Human importin α3 lacking the IBB domain (hImpα3DIBB) (domain or fragment),0.0455,3480
